# Laboratory results taken from article PMC3149649, “Evidence for a Two-Metal-Ion Mechanism in the Cytidyltransferase KdsB, an Enzyme Involved in Lipopolysaccharide Biosynthesis” (PLoS ONE, 2011).
# B1: AA-LCKS (LPS-specific CMP-Kdo synthetase, KdsB) (Aquifex aeolicus VF5) (protein)
# chain: MRRAVIIPARLGSTRLKEKPLKNLLGKPLIRWVVEGLVKTGERVILATDSERVKEVVEDLCEVFLTPSDLPSGSDRVLYVVRDLDVDLIINYQGDEPFVYEEDIKLIFRELEKGERVVTLARKDKEAYERPEDVKVVLDREGYALYFSRSPIPYFRKNDTFYPLKHVGIYGFRKETLMEFGAMPPSKLEQIEGLEQLRLLENGIKIKVLITENYYHGVDTEEDLKIVEEKLKNL
# notes: recombinant from plasmid pT7-kdsB in E. coli BL21-CodonPlus(DE3)-RIL; no tag mentioned; monomer 27 kDa, gel filtration 53 kDa, homodimer
# Substrate: Nc1ccn([C@@H]2O[C@H](COP(=O)(O)OP(=O)(O)OP(=O)(O)O)[C@@H](O)[C@H]2O)c(=O)n1
# Test: discontinuous CMP-Kdo formation assay (Ray et al.), non-linear Michaelis-Menten fit
# Assay type: biochemical, Aquifex aeolicus
# Details: co-substrate Kdo held constant (>5 x Km), 10 mM MgCl2 (typical mixture), 100 mM glycine-NaOH pH 9.0, 50°C
protein,measurement,value
B1,Km,160 ± 4 µM
same,kcat,9.5 ± 0.5 s⁻¹
